From patent US20090291081A1 (AbbVie / Abbott, published 2009) come the findings set out here.

Several values for one entry are separate records, joined by “and”; a condition that tells them apart may be missing. Equal entries are not always repeated.

The chains are these.
B1: ABT2-108-521 (other)
VH: EVQLLESGGGLVQPGGSLRLSCAASGFTFAEYTMMWVRQAPGKGLEWVSRIGQDGKNTYYADSVKGRFTISRDNSKNTLYLQMNSLRAEDTAVYYCAKYTGRILGHHLFDYWGQGTLVTVSS
notes: VH dAb
B2: ABT2-108-534x (other)
VH: EVQLLESGGGLVQPGGSLRLSCAASGFTFADEGMMWVRQAPGKGLEWVSRITYSGKNTYYADSVKGRFTISRDNSKNTLYLQMNSLRAEDTAVYYCAKYTGRIFSHHLFDYWGQGTLVTVSS
notes: VH dAb
B3: ABT2-108-602 (other)
VH: EVQLLESGGGLVQPGGSLRLSCAASGFTFAEEKYMWVRQAPGKGLEWVSRIGQDGKNTYYADSVKGRFTISRDNSKNTLYLQMNSLRAEDTAVYYCAKYTGRVGVHHLFDYWGQGTLVTVSS
notes: VH dAb
B4: ABT2-108-511 (other)
VH: EVQLLESGGGLVQPGGSLRLSCAASGFTFAEYTMMWVRQAPGKGLEWVSRIGQDGKNTVIRDSVKGRFTISRDNSKNTLYLQMNSLRAEDTAVYYCAKYTGRVGVHHLFDYWGQGTLVTVSS
notes: VH dAb
B5: ABT2-108-527 (other)
VH: EVQLLESGGGLVQPGGSLRLSCAASGFTFAEYTMMWVRQAPGKGLEWVSRIGQDGKNTYYADSVKGRFTISRDNSKNTLYLQMNSLRAEDTAVYYCAKYTGRVFKHHLFDYWGQGTLVTVSS
notes: VH dAb
B6: ABT2-108-524 (other)
VH: EVQLLESGGGLVQPGGSLRLSCAASGFTFAEYTMMWVRQAPGKGLEWVSRIGQDGKNTYYADSVKGRFTISRDNSKNTLYLQMNSLRAEDTAVYYCAKYTGRVFNHHLFDYWGQGTLVTVSS
notes: VH dAb
B7: ABT2-108-504 (other)
VH: EVQLLESGGGLVQPGGSLRLSCAASGFTFADEGMMWVRQAPGKGLEWVSRIGQDGKNTYYADSVKGRFTISRDNSKNTLYLQMNSLRAEDTAVYYCAKYTGRVGVHHLFDYWGQGTLVTVSS
notes: VH dAb
B8: ABT2-108-601 (other)
VH: EVQLLESGGGLVQPGGSLRLSCAASGFTFAEESWMWVRQAPGKGLEWVSRIGQDGKNTYYADSVKGRFTISRDNSKNTLYLQMNSLRAEDTAVYYCAKYTGRVGVHHLFDYWGQGTLVTVSS
notes: VH dAb
B9: ABT2-108-518 (other)
VH: EVQLLESGGGLVQPGGSLRLSCAASGFTFAEYTMMWVRQAPGKGLEWVSRIGQDGKNTYYRMDVKGRFTISRDNSKNTLYLQMNSLRAEDTAVYYCAKYTGRVGVHHLFDYWGQGTLVTVSS
notes: VH dAb
B10: ABT2-108-509 (other)
VH: EVQLLESGGGLVQPGGSLRLSCAASGFTFAEYTMMWVRQAPGKGLEWVSRITYSGKNTYYADSVKGRFTISRDNSKNTLYLQMNSLRAEDTAVYYCAKYTGRVGVHHLFDYWGQGTLVTVSS
notes: VH dAb
B11: ABT2-65-166S (other)
VH: EVQLLESGGGLVQPGGSLRLSCAASGFTFSDYQMGWVRQAPGKGLEWVSSISAMGGRTYYADSVKGRFTISRDNSKNTLYLQMNSLRAEDTAVYYCAQNLVRLGRSRWMFDYWGQGTLVTVSS
notes: VH dAb
B12: ABT2-65-203 (other)
VH: EVQLLESGGGLVQPGGSLRLSCVASGFTFEDYQMGWVRQAPGKGLEWVSSISAMGFRTYYADSVKGRFTISRDNSKNTLYLQMNSLRAEDTAVYYCAQNLVRLGRSRWMFDYWGQGTLVTVSS
notes: VH dAb
B13: ABT2-65-B2 (other)
VH: EVQLLESGGGLVQPGGSLRLSCVASGFTFEDYQMGWVRQAPGKGLEWVSSISAMGRRTYYADSVKGRFTISRDDSKNTLYLQMNSLRAEDTAVYYCAQNLVRLGRSRWMFDYWGQGTLVTVSS
notes: VH dAb
B14: ABT2-65-166SK (other)
VH: EVQLLESGGGLVQPGGSLRLSCAASGFTFSDYQMGWVRQAPGKGLEWVSSISAMGGRTYYADSVKGRFTISRDNSKNTLYLQMNSLRAEDTAVYYCAKNLVRLGRSRWMFDYWGQGTLVTVSS
notes: VH dAb
B15: ABT2-65-201 (other)
VH: EVQLLESGGGLVQPGGSLRLSCVASGFTFEDYQMGWVRQAPGKGLEWVSSISAMGRRTYYADSVKGRFTISRDNSKNTLYLQMNSLRAEDTAVYYCAQNLVRLGRSRWMFDYWGQGTLVTVSS
notes: VH dAb
B16: ABT2-65-B3 (other)
VH: EVQLLESGGGLVQPGGSLRLSCVASGFTFEDYQMGWVRQAPGKGLEWVSSISAMGNRAYYADSVKGRFTISRDDSKNTLYLQMNSLRAEDTAVYYCAQNLVRLGRSRWMFDYWGQGTLVTVSS
notes: VH dAb
B17: ABT2-108-612/ABT1-122 hu IgG1/K wt (bispecific antibody, V domains shown)
VH: EVQLLESGGGLVQPGGSLRLSCAASGFTFAEYTMMWVRQAPGKGLEWVSRIGQDGKNTYYADSVKGRFTISRDNSKNTLYLQMNSLRAEDTAVYYCAKYTGRIMGHHLFDYWGQGTLVTVSS
VL: DIQMTQSPSSLSASVGDRVTITCRASQPIWTELNWYQQKPGKAPKLLIYGSSSLQSGVPRFSGSGSGTDFTLTISSLQPEDFATYYCQQFAYFPATFGQGTKVEIKR
B18: ABT2-108-617/ABT1-122 hu IgG1/K wt (bispecific antibody, V domains shown)
VH: EVQLLESGGGLVQPGGSLRLSCAASGFTFAEYTMMWVRQAPGKGLEWVSRIGQDGKNTYYADSVKGRFTISRDNSKNTLYLQMNSLRAEDTAVYYCAKYTGRIFTHHLFDYWGQGTLVTVSS
VL: DIQMTQSPSSLSASVGDRVTITCRASQPIWTELNWYQQKPGKAPKLLIYGSSSLQSGVPRFSGSGSGTDFTLTISSLQPEDFATYYCQQFAYFPATFGQGTKVEIKR
B19: ABT2-65-8/ABT1-122 hu IgG1/K wt (bispecific antibody, V domains shown)
VH: EVQLLESGGGLVQPGGSLRLSCAASGFTFEDYQMGWVRQAPGKGLEWVSSISAMGNRTYYADSVKGRFTISRDDSKNTLYLQMNSLRAEDTAVYYCAQNLVRMDSRRWMFDYWGQGTLVTVSS
VL: DIQMTQSPSSLSASVGDRVTITCRASQPIWTELNWYQQKPGKAPKLLIYGSSSLQSGVPRFSGSGSGTDFTLTISSLQPEDFATYYCQQFAYFPATFGQGTKVEIKR
B20: ABT2-65/ABT1-122 hu IgG1/K wt (bispecific antibody, V domains shown)
VH: EVQLLESGGGLVQPGGSLRLSCAASGFTFEDYQMGWVRQAPGKGLEWVSSISAMGNRTYYADSVKGRFTISRDDSKNTLYLQMNSLRAEDTAVYYCAKNLVRTQSKMWMFDYWGQGTLVTVSS
VL: DIQMTQSPSSLSASVGDRVTITCRASQPIWTELNWYQQKPGKAPKLLIYGSSSLQSGVPRFSGSGSGTDFTLTISSLQPEDFATYYCQQFAYFPATFGQGTKVEIKR

The target in one assay is T1, human IL-1β (human, UniProt P01584 117-269).
T1 construct: also called IL-1beta; hIL-1β
Kind of assay: Table 60 heading; dAbs from selection on antigen.
Take B1: the binding result is listed as “binds”. As to B2, the binding result is reported as “binds”. As to B3, the binding result was “binds”.

B4: the binding result is listed as “binds”. Same read-out and setting: to B5 belongs “binds”; to B6, “binds”; to B7, “binds”. Same read-out and setting: the entry for B8 is “binds”. As for B9, the binding result is “binds”. On the same count and under the same terms, to B10 belongs “binds”. With B11, the binding result is “binds”. As for B12, the binding result is listed as “binds”. On to B13, for which the binding result is “binds”. Still for that read-out and setting: to B14 belongs “binds”; to B15, “binds”. The same measure, in the same setting: to B16 belongs “binds”.

A further assay concerns the target T2, human IL-1α (human, UniProt P01583 113-271).
T2 sequence (looked up): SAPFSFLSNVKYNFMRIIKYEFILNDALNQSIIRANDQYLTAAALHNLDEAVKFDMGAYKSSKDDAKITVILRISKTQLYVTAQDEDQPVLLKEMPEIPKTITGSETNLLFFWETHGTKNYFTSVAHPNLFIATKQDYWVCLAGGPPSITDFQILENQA
In words: cell-based or functional assay.
For the molecule B17, the “IL-1α IC50” value amounted to 100 nM. Same read-out and setting: the figure for B18 is 150 nM.

Regarding B19, the “IL-1α IC50” value came to 1000 nM. Same read-out and setting: the figure for B20 is 2000 nM.

The target of the next assay is human IL-1β (human, UniProt P01584 117-269). In words: cell-based or functional assay.
For B17, the “IL-1β IC50” value is 1 nM and 0.45 nM.

Take B18: the “IL-1β IC50” value came out at 0.05 nM. The same measure, in the same setting: the figure for B19 is 2.7 nM; for B20 it is 2000 nM.
